In US20220332804A1 (CSL INNOVATION, published 2022):

What was measured:
Test in all cases: SPR; KD relative to WT C2;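 also: biacore SPR at 37 °C, anti-C2 mAbs captured on an anti-human IgG chip, alanine or serine C2 surface mutants tested, KD from 1:1 fit compared with wild-type C2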
[1] = molecular target: T1, human C2 G466A (human, UniProt P06681 21-752)
T1 sequence: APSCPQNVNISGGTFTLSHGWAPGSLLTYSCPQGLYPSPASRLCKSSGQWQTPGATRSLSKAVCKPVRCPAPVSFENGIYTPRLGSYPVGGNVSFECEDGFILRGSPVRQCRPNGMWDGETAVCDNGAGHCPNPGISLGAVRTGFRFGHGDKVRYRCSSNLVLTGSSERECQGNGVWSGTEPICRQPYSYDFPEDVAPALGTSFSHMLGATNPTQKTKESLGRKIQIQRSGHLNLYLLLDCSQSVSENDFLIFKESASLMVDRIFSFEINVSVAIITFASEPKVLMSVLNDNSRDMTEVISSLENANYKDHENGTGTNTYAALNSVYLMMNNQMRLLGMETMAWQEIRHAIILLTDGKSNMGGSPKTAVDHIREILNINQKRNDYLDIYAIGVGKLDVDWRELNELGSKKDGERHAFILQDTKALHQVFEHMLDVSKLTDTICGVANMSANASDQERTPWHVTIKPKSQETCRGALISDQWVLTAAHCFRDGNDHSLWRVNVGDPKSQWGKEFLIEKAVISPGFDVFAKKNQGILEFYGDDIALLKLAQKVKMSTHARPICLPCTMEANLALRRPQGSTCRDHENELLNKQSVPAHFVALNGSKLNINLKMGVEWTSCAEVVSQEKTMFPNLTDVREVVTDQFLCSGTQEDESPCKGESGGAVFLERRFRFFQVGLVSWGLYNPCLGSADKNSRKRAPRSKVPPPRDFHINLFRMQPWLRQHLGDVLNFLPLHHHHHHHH
Protocol: (§1) Surface plasmon resonance (SPR, Biacore) was used for all binding affinity analyses. In brief, goat anti-human IgG was directly immobilised onto the carboxymethyl dextran surface of CM5 sensorchips to approximately 12,000 RU using standard NHS/EDC chemistry at pH 5. The immobilised antibody surface was pre-conditioned with ten injections of polyclonal human IgG (Privigen 60 s) prepared at 1 μg/mL. Ligands (anti-C2 mAbs) were captured at the beginning of each cycle as described below. An adjacent spot or flow cell in which only Polyclonal IgG was capture was used as a reference surface. The goat anti-human IgG Fc antibody surface was regenerate in 100 mM H3PO4, injected for 45 seconds at the end of each cycle. Experiments were performed at 37° C. and the flow rate of each experiment was kept constant at 30 μL/min.
(§2) Sensogram data was double-referenced against a reference anti-IgG surface (i.e. minus anti-C2 mAb) and blank buffer injections obtained within each experiment. The binding data was fit to 1:1 (kinetic or steady-state) model using local Rmax and null refraction index (RI=0) when appropriate. Buffers and solutions were filtered (0.22 μm) prior to use.
(§3) The C2 mutants were designed to test the importance of surface exposed residues for antibody binding. Residues located at either the N-terminal VWA domain or C-terminal protease domain of C were replaced by either alanine or serine and tested for binding against anti-C2 antibodies.

[2] = molecular target: T2, human C2 D441A (human, UniProt P06681 21-752)
T2 sequence: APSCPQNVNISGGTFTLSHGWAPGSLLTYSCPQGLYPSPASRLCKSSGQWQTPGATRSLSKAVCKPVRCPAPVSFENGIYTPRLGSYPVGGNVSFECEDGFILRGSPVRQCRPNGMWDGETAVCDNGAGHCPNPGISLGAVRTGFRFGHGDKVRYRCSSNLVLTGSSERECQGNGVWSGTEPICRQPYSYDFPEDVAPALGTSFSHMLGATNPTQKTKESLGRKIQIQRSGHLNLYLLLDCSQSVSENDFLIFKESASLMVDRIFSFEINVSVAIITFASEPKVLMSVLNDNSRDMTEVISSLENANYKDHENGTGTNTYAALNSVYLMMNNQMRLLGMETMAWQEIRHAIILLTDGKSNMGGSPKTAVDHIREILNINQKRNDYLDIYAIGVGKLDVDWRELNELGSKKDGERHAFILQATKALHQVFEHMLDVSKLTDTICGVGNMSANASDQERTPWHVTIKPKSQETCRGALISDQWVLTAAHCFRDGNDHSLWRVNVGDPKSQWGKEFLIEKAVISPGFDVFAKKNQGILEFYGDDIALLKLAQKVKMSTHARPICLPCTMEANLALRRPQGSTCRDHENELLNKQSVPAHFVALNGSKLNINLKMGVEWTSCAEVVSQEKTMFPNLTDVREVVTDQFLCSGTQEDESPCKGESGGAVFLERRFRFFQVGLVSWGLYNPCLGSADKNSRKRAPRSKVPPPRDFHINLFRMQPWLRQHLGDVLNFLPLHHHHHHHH
Protocol: as §1, §2, §3

[3] = molecular target: T3, human C2 V448A (human, UniProt P06681 21-752)
T3 sequence: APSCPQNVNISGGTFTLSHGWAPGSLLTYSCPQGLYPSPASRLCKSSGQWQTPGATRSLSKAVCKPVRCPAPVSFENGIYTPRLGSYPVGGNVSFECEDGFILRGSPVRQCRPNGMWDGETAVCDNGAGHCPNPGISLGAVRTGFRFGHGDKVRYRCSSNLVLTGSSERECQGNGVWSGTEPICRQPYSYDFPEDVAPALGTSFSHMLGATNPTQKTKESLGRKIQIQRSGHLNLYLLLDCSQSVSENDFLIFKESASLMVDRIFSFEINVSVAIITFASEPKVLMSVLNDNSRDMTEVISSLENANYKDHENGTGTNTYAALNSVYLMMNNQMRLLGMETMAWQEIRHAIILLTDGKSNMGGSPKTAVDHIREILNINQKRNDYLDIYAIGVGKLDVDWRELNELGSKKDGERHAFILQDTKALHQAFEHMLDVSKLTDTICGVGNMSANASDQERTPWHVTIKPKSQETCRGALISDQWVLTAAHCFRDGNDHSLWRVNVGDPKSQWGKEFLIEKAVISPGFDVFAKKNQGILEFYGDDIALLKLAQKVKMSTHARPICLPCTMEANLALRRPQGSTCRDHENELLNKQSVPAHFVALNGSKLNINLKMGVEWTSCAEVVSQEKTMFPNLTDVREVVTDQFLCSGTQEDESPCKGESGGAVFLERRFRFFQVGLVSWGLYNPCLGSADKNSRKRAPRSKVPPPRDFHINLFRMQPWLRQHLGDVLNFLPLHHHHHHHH
Protocol: as §1, §2, §3

[4] = molecular target: T4, human C2 Y328A (human, UniProt P06681 21-752)
T4 sequence: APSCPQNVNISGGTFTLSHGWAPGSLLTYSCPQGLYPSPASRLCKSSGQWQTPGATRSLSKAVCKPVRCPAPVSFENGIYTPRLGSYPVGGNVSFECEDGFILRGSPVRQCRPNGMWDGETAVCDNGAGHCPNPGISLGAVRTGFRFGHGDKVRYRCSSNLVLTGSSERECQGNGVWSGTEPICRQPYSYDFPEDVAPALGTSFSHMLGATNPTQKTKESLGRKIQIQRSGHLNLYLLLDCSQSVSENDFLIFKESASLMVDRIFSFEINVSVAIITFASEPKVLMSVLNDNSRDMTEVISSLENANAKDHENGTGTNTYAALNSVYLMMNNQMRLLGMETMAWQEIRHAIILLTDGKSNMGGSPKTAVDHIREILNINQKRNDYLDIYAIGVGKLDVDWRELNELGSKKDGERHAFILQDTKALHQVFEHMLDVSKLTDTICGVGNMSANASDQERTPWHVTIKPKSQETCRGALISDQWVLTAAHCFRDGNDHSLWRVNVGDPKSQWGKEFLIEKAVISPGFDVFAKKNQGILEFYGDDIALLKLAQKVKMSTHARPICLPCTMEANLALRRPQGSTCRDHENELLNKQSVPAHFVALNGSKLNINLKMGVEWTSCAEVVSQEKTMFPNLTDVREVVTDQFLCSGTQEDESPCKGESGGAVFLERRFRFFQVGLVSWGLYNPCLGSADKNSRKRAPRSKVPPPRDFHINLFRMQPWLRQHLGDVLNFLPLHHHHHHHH
Protocol: as §1, §2, §3

B1: RF16-214 (antibody, V domains shown)
VH: EVQLLESGGGLVQPGGSLRLSCAASGFTFSWYQMMWVRQAPGKGLEWVSRIYPSGGGTAYADSVKGRFTISRDNSKNTLYLQMNSLRAEDTAVYYCARDAGYGDNWGQGTLVTVSS
VL: QSALTQPPSVSVSPGQTASITCSGDKLGEKYASWYQQKAGQSPVMVIYQDRKRPSGIPERFSGSNSGNTATLTISGTQAMDEADYYCQAWDTRAVVFGGGTKLTVLG
B1 was tested, and the Fold diff [1] was 5 fold, the Fold diff [2] was 2 fold and the Fold diff [3] was 0 fold. The Fold diff [4] was 6 fold.
